We go through nine molecules from patent US20240352445A1 (ABWIZ BIO, published 2024).

The chains are these.
B1: LxC1-G10 (antibody, V domains shown)
VH: EVQLVESGGGLVQPGGSLRLSCTVSGFSLSTYAMSWVRQAPGKGLEWIGVIASNADTYYASWAKGRFTISRDNSKNTLYLQMNSLRAEDTAVYYCARHPGSAGYGYAVYYAMDPWGQGTLVTVSS
VL: DIQMTQSPSSLSASVGDRVTITCQASERVFYGIDWYQQKPGKAPKLLIYGASALWHGVPSRFSGSGSGTDYTLTISSLQPEDFATYYCQQGYMVPIGFGGGTKVEIK
notes: also called light chain engineered candidate
B2: humanized antibody hN2Y (antibody, V domains shown)
VH: B1 VH
VL: DIQMTQSPSSLSASVGDRVTITCKASEDIRYGLNWYQQKPGKAPKLLIYGANTLEAGVPSRFSGSGSGTDYTLTISSLQPEDFATYYCQQGYSTPLTFGGGTKVEIK
B3: G10xA5 (antibody, V domains shown)
VH: B1 VH with F27Y, S28T, S30F, T31P, Y32P, A33P, M34V, S35T, A107Q, V108Y
VL: B1 VL
B4: G10xA1 (antibody, V domains shown)
VH: EVQLVESGGGLVQPGESLRLSCKASGFTFPNQAMTWVRQAPGKGLEWIGVIASNADTYYASWAKGRFTISRDNSKNTLYLQMNSPRAEDTAVYYCARHPGSAGYGYALYYAMDPWGQGTLVTVSS
VL: B1 VL
B5: SEQ ID NO 12 (antibody, V domains shown)
VH: B1 VH
VL: DIQMTQSPSSLSASVGDRVTITCQASQPIHYAINWYQQKPGKAPKLLIYGTSHRKMGVPSRFSGSGSGTDYTLTISSLQPEDFATYYCQQGYIVALKFGGGTKVEIK
notes: also called selected clone from LxC libraries; LxC clone
B6: SEQ ID NO 18 (antibody, V domains shown)
VH: B1 VH
VL: B2 VL with A51G, N52S, T53Y, E55R, A56W, S93R, T94V, L96I, T97R
notes: As m4; also called selected clone from LxC libraries; LxC clone
B7: SEQ ID NO 16 (antibody, V domains shown)
VH: B1 VH
VL: B5 VL with P28D, I29V, H30K, H53S, K55G, M56E, I93V, A95S, L96I, K97F
notes: As m4
B8: SEQ ID NO 17 (antibody, V domains shown)
VH: B1 VH
VL: DIQMTQSPSSLSASVGDRVTITCQASQPIYYGINWYQQKPGKAPKLLIYGHTYRAWGVPSRFSGSGSGTDFTLTISSLQPEDFATYYCQQGYRVGLGFGGGTKVEIK
notes: As m4
B9: SEQ ID NO 15 (antibody, V domains shown)
VH: B1 VH
VL: B5 VL with P28K, H53Y, R54L, K55G, M56G, Y71F, A95P, L96N, K97S
notes: As m4

Where a chain is given by its changes, count along the chain named.

One assay addresses T1, SARS-CoV-2 spike protein trimer, Omicron (B.1.1.529) variant (SARS-CoV-2, UniProt P0DTC2 16-1213).
Experiment: not given
For B1, the Kd (as a rule, the equilibrium constant for the complex coming apart) was 0.051 nM and the “fold improvement in IC50 compared to hN2Y” value is more than 13 fold.

Turning to B2, the concentration for half-maximal inhibition (IC50) (in general, the point on the concentration scale where inhibition reaches its midpoint) was 0.26 µg/mL.

The target of the next assay is SARS-CoV-2 spike protein trimer, Delta (B.1.617.2) variant (SARS-CoV-2, UniProt P0DTC2 16-1213). In words: BLI (Octet), biotinylated spike trimer on streptavidin sensor, IgG titrated. A general note: Biolayer interferometry detects binding as a change in optical thickness at a sensor tip.
As for B3, the “fold improved affinity compared to LxC1-G10” value (shortened to “fold improved affinity”) was more than 20 fold.

As to B4, the “fold improved affinity” value is more than 20 fold.

The next assay has as its target T1, SARS-CoV-2 spike protein trimer, …. The assay is described as above.
Consider B3, for which the “fold improved affinity” value stood at 15 fold.

With B4, the “fold improved affinity” value is 1.2 fold.

The target of a further assay is T2, SARS-CoV-2 spike protein trimer, Beta (B.1.351) variant (SARS-CoV-2, UniProt P0DTC2 16-1213). The description is as above.
As to B1, the “fold increased affinity compared to hN2Y” value is more than 100 fold.

The target of the next assay is SARS-CoV-2 spike protein trimer, Alpha (B.1.1.7) variant (SARS-CoV-2, UniProt P0DTC2 16-1213). The experiment in a line: ELISA, purified IgG. On the technique in general: An ELISA detects its analyte on a solid surface through an enzyme-linked reagent.
For B5, the binding result is on record as “binds”.

Consider B6, for which the binding result is on record as “binds”.

As for B7, the binding result is “binds”.

On to B8, for which the binding result is “binds”.

Take B9: the binding result was “binds”.

The target in a further assay is SARS-CoV-2 spike protein trimer, Gamma (P.1) variant (SARS-CoV-2, UniProt P0DTC2 16-1213). The experiment in a line: ELISA, purified IgG.
In the case of B5, the binding result is reported as “binds”.

In the case of B6, the binding result is recorded as “binds”.

With B7, the binding result is “binds”.

With B8, the binding result is given as “binds”.

With B9, the binding result was “binds”.

In the next assay the target is SARS-CoV-2 spike protein trimer, Kappa (B.1.617.1) variant (SARS-CoV-2, UniProt P0DTC2 16-1213). The experiment in a line: ELISA, purified IgG.
Turning to B5, the binding result is on record as “binds”.

Regarding B6, the binding result is given as “binds”.

Regarding B7, the binding result is reported as “binds”.

As to B8, the binding result was “binds”.

As for B9, the binding result is reported as “binds”.

The target of the next assay is T2, SARS-CoV-2 spike protein trimer, Beta …. In words: ELISA, purified IgG.
Take B5: the binding result was “binds”.

B6: the binding result is “binds”.

For B7, the binding result was “binds”.

In the case of B8, the binding result is on record as “binds”.

B9: the binding result is “binds”.

A further assay concerns the target SARS-CoV-2 spike protein trimer, Epsilon (B.1.429) variant (SARS-CoV-2, UniProt P0DTC2 16-1213). The experiment in a line: ELISA, purified IgG.
With B5, the binding result is “binds”.

With B6, the binding result is “binds”.

Consider B7, for which the binding result is “binds”.

Turning to B8, the binding result was “binds”.

Regarding B9, the binding result is given as “binds”.
